Test [1] concerns the target Tachlorophyllase H76S/E79S/C270S triple variant (Triticum aestivum). The test can be described thus: SEC-MALS + other: dynamic light scattering. A general note: In gel filtration, larger molecules generally elute earlier.
Test [2] addresses Triticum aestivum chlorophyllase (Tachlorophyllase), wild type (Triticum aestivum). The test can be described thus: SEC-MALS + other: dynamic light scattering.

For “Tachlorophyllase H76S/E79S/C270S triple variant (enzyme)”, the stoichiometry N – broadly, the number of molecules, sites or subunits per partner or assembly – in test [1] came out at 2.
With “Triticum aestivum chlorophyllase (Tachlorophyllase), wild type (enzyme)”, the stoichiometry N in test [2] stood at 2.

(Values after article PMC11659893.)
